The record followed here is PMC4791469.

Test [1] deals with Chlamydomonas [FeFe]-hydrogenase HYDA1 (CrHYDA1) (Chlamydomonas reinhardtii).
Test [2] deals with Chlamydomonas ferredoxin:NAD(P) reductase I (CrFNR1) (Chlamydomonas reinhardtii) (UniProt P53991).
UniProt P53991, sequence (P53991 36-354): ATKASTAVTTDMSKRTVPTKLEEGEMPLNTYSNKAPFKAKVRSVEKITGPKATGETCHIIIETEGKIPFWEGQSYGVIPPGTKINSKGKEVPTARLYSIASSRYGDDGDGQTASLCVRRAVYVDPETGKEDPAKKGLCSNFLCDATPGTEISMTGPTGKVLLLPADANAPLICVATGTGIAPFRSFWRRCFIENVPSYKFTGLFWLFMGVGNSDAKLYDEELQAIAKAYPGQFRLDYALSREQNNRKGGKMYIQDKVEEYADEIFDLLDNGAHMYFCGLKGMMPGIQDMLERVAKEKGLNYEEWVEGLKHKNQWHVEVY

“Chlamydomonas reinhardtii ferredoxin 1 (CrFDX1), mature, tag cleaved (natural protein)”: in test [1], the hydrogen photo-production rate (thylakoids, 100 nM HYDA1, light, gas chromatography) came to 489. In addition, in test [2], the Km for the ferredoxin in FNR1-catalysed NADPH photo-production (thylakoids, 0.5 μM FNR1, varied FDX, Lineweaver-Burk) stood at 0.4 µM and the catalytic efficiency kcat/Km of FNR1-catalysed NADPH photo-production with this ferredoxin turned out to be 1.7e+09 M⁻¹ s⁻¹.
The like results for “Chlamydomonas reinhardtii ferredoxin 2 (CrFDX2), mature, wild type, tag cleaved (natural protein)” were, in that order, 86, 0.18 µM and 3.5e+09 M⁻¹ s⁻¹.
CrFDX2 (M62F) (natural protein) yielded a hydrogen photo-production rate (thylakoids, 100 nM HYDA1, light, gas chromatography) (µmol H2/µg Chl/h) in test [1] of 150. Moreover, the Km for the ferredoxin in FNR1-catalysed NADPH photo-production (thylakoids, 0.5 μM FNR1, varied FDX, Lineweaver-Burk) in test [2] came to 0.69 µM.
The substance CrFDX2 (M62F/∇95Y) (natural protein) displayed a hydrogen photo-production rate (thylakoids, 100 nM HYDA1, light, gas chromatography) in test [1] of 264. The Km for the ferredoxin in FNR1-catalysed NADPH photo-production (thylakoids, 0.5 μM FNR1, varied FDX, Lineweaver-Burk) in test [2] was 3.44 µM.
On to CrFDX2 (∇95Y) (natural protein), for which the hydrogen photo-production rate (thylakoids, 100 nM HYDA1, light, gas chromatography) in test [1] is 134. Moreover, the Km for the ferredoxin in FNR1-catalysed NADPH photo-production (thylakoids, 0.5 μM FNR1, varied FDX, Lineweaver-Burk) in test [2] turned out to be 0.38 µM.
